Source: article PMC9998502, “Functional selectivity of EM-2 analogs at the mu-opioid receptor” (Frontiers in Pharmacology, 2023)
Non-standard residues stand in square brackets, D forms with d. No end group written: not given here. Dmt = Cc1cc(O)cc(C)c1C[C@H](N)C(=O)O

Tests used:
[1] = molecular target: human mu opioid receptor (human) (UniProt P35372)
[2] = molecular target: human mu opioid receptor (human) (UniProt P35372); assay: radioligand binding; displacement of [3H]DAMGO from commercial membranes of CHO cells transfected with the human recombinant mu opioid receptor; Ki, mean ± SEM, n ≥ 3

Sequence of human mu opioid receptor (human) (P35372 whole entry): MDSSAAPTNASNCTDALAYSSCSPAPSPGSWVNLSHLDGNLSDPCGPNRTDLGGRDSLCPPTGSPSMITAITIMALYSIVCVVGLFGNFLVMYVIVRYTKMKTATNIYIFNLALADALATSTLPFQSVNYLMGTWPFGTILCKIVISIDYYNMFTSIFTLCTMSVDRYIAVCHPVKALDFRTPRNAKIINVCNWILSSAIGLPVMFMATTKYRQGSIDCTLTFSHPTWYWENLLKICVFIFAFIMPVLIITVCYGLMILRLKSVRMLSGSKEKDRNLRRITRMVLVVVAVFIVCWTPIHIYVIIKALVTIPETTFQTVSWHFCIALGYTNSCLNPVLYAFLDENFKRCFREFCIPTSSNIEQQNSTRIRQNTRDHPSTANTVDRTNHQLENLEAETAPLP

## YPFF-NH2 [endomorphin-2 (Tyr-Pro-Phe-Phe-NH2)]
[1]
  calcium mobilization, CHO cells with human mu receptor and Gαqi5: α (Emax ratio to the standard agonist): 1
[2]
  Ki: 1.97 nM

## [Dmt]PFF-NH2 [EM-2 analog 1 (Dmt-Pro-Phe-Phe-NH2)]
[1]
  calcium mobilization, CHO cells with human mu receptor and Gαqi5: α (Emax ratio to the standard agonist): 0.85
[2]
  Ki: 0.54 nM
